Results: publication PMC12409452

Biological target: mitochondrial electron transport chain complex III2 (UniProt P22695)
Test: BN-PAGE immunoblot (Ndufb8), band quantification
Settings: A549 cells transfected with Ndufs1 plasmid; respirasome band CIn+CIIIn+CIVn normalised to free CI band; n = 3, mean ± SD; parent: est. 0.04; read off a plot

Chain of UniProt P22695 (P22695 whole entry, looked up, one chain of several): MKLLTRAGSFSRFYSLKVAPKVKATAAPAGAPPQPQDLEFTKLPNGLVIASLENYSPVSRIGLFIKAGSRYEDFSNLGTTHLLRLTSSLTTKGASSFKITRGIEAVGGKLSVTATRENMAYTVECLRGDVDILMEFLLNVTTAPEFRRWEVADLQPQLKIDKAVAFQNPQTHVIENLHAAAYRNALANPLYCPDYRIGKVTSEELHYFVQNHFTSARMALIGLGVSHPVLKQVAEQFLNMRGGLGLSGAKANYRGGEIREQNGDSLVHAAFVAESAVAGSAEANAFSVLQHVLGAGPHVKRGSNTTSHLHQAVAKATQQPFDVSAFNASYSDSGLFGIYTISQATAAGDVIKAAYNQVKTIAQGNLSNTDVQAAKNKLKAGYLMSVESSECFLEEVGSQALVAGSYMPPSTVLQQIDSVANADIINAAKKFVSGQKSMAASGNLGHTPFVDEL

| other: Relative Respirasome level (vs CI) | Substance |
| --- | --- |
| 1.9 | mitochondrial electron transport chain complex I with wild-type Ndufs1 (from UniProt P28331;O95169) C64D |
| 1 | mitochondrial electron transport chain complex I with wild-type Ndufs1 (from UniProt P28331;O95169) C727D |
| 1.4 | mitochondrial electron transport chain complex I with wild-type Ndufs1 (from UniProt P28331;O95169) C78D |
| 1.5 | mitochondrial electron transport chain complex I with wild-type Ndufs1 (from UniProt P28331;O95169) C92D |
| 1.2 | mitochondrial electron transport chain complex I with wild-type Ndufs1 (from UniProt P28331;O95169) C564D |
| 1.9 | mitochondrial electron transport chain complex I with wild-type Ndufs1 (from UniProt P28331;O95169) C75D |
| 1.1 | mitochondrial electron transport chain complex I with wild-type Ndufs1 (from UniProt P28331;O95169) C554D |
| 0.15 | mitochondrial electron transport chain complex I with wild-type Ndufs1 (from UniProt P28331;O95169) C367D |
